We go through 6 substances from PMC6125642.

The assay addresses FITC-labeled aP-C18 peptide (not stated (P. horikoshii and P. furiosus aP1 were both used)). Briefly: fluorescence polarisation. On the technique in general: Fluorescence polarisation rises when a labelled molecule tumbles more slowly, as on binding a larger partner.
For orientation: Kd means the equilibrium constant for the complex coming apart. Higher therefore signals a looser complex. Turning to aABCE1 V219S (enzyme), the Kd is 6.3 µM. In the case of aABCE1 A223S (enzyme), the Kd came to 46.3 µM. aABCE1 R227A (enzyme) came in with a Kd of 30.8 µM.

Consider aABCE1 V174S (enzyme), for which the dissociation constant Kd is 83 µM. With aABCE1 I170S (enzyme) the figure was 68.1 µM; with aABCE1-ΔN74 (domain or fragment), 4.4 µM.
